Laboratory results reported in the nanobody polyreactivity screen of Harvey et al. (2022).

Assay: yeast display, Sf9 membrane polyspecificity reagent, FACS + sequencing; frameworks hold sequencing errors
Method in brief: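 Nanobodies came from a synthetic yeast display library in Saccharomyces cerevisiae BJ5465, induced with galactose for 36–48 hours and stained for 1 hour at 4 °C with 10% biotinylated, detergent-solubilized Sf9 membrane reagent. Cells were enriched on streptavidin microbeads and then FACS-sorted, with low and high (top ~1%) gates set on anti-HA fluorescence for expression and streptavidin fluorescence for reagent binding. Each polyreactivity label reflects the gate a clone came from. Genes were amplified by colony PCR, sequenced by MiSeq 2 × 250 and filtered by CDR length.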

Sequence | polyreactivity (PSR sort gate)
QVQLVESGGGLVQAGGTLRLSCAASGGIFSYAMGWYRQAPGKERELVADINSDGSTTYADSVKGRFTISRDNAKNTVYLQMNSLKPEDTAVYYCAADTYFWSYSYNYYYWGQGTQVTVSS | low polyreactivity
QVQLVESGGGLVQAGGTLRLSCAASGIIFHWYAMGWYRQAPGKERELVAAITQSGGSTSYADSVKGRFTISRDNAKNTVYLQMNSLIPEDTAVYYCNAREVRDEYNYWGQGTQVTVSS | low polyreactivity
QVQLVESGGGLVQAGGTLRLSCAASGITLKLYVMGWYRQAPGKERELVAAISRRGGSTYYADSVKGRFTLSRDNAKYTVYLQMISLKPEDTAVYYCAKDGTQYERKDPAYGYWGQGTQVTVSS | high polyreactivity
QVQLVESGGGLVQAGGTLRLSCAASGLIFKKYTMGWYRQAPGKERELVASISKSGGSTYYADSVKGRFTISRDNAKNTVYLQMISLKPEESAVYYCNRVTHYIRFDYWGQGTQVTVSS | low polyreactivity
QVQLVESGGGLVQAGGTLRLSCAASGLIFVRYAMGWYRQAPGKERELVATITDGGSKYYADSVKGRFTISRDNAKNTVYLQMNSLKPEDTAVYYCNKDRVSVRYEYWGQGTQVTVSS | low polyreactivity
QVQLVESGGGLVQAGGTLRLSCAASGRIFGPYAMGWYRQAPWKERELVAAISFSGSGTYYADSVKGRFTISRDNAKNTVYFQMNSLKAEDTAVYYCAATSRKIVAFDHDYWGQGTQVTVSS | low polyreactivity
QVQLVESGGGLVQAGGTLRLSCAASGRTFRQNAMGWYRQAPGKERELVAAISVNGGRTYYADSVKGRFTITRDNAKITVYLQMNSLKPEDTAVYYCAAESYRIPRRSGYDYWGQGTQVTVSS | high polyreactivity
QVQLVESGGGLVQAGGTLRLSCAASGSIFAHYTMGWYRQAPGKERELVAVISRSGARTYYADSVKGRFTISRDNAKNTVYLQMNSLKPEDTAVYYCAADRTLEEDYWGQGTQVTVSS | low polyreactivity
QVQLVESGGGLVQAGGTLRLSCAASGSIFTHYAMGWYRQAPGKERELVAAISRRGGSTYYADSVKGRFTNSRDNAKNTVYLQMNSLKPEDSAVYYCAKSPDTAKEYDYWGQGTQVTVSS | high polyreactivity
QVQLVESGGGLVQAGGTLRLSCAASGSTFGYPMGGYRQSPGKERELVAAMTSTGGSTYYADSVKGRFTISRDNAKITVYLQMNSQKPEDTAVYYCAADAYWIRSRFLYRIRYNYWGLGTQVTVSS | high polyreactivity
QVQLVESGGGLVQAGGTLRLSCAASGSTFGYYTMGWYRQAPGKERELVAAITWSGGSTYYADSVKGRFTISRDNAKKTVYLQMNSLKAEDSAVSYCAADDYWTPFGYSGQGTQVTVSS | low polyreactivity
QVQLVESGGGLVQAGGTLRLSCAASGSTFIGNAMGWYIQAPGKERELVAAITRSGGSTFYADSVKGRFTISRDNAKNTVYLQMNSLKPEDTAVYYCAARNGAYPALKEGDYWGQGTQVTVSS | high polyreactivity
QVQLVESGGGLVQAGGTLRLSCAASGSTFTGNAMGWYRQAPGKERELVASISTGGSTNYADSVKGRFTISRDNAKNTVYLQMNSLKPEDTAVYYCAKRIRYNWTFDDWGQGTQVTVSS | low polyreactivity
QVQLVESGGGLVQAGGTLRLSCAASGSTFYRYAMGWYRTAPGKERELVATITRSGGSTYYADSVKGRFTISRDNAKNTVYLQMNSLKPEDTAVYYCAARGWYKSDYWGQGTQVTVSS | low polyreactivity
QVQLVESGGGLVQAGGTLRLSCAASGSTFYSYAMGWYRQAPGKERELVAAISGRGGTTYYADSVKGRFTISRDNAKNTVYLQMNSLKPEDTAVYYCAAEGWDWWTDDDYWGQGTQVTVSS | high polyreactivity
QVQLVESGGGLVQAGGTLRLSCAASGVIFKVYGMRWYRQAPGKERELVAAISWTTGGTYYADSVKGRFTISRDNAKNTVYLQMNSLKPEDTAVYYCNAPSWYYSGVRYDYWGQGTQVTVSS | high polyreactivity
QVQLVESGGGLVQAGGTLRLSCAASRITFWYYARGWYIQAPGKERELVAAITSGGSTYYADSVKGRFTISRDNAKNTVYLQMNSLKPEDTAVYYCAKDSVWGAKNLTSYKYYYWGQGTQVTGSS | low polyreactivity
QVQLVESGGGLVQAGGTLRLSCADSGSTIRNYAMGWYRQAPGKERELVATISASGGSTYYADSVKGRFTISRDNAKNTVYLQLNSLKPEDTAVYYCNAVVKLWGLVIPPGDYDYWRQGTQVTVSS | high polyreactivity
QVQLVESGGGLVQAGGTLRLSCAPSARTFDRNAMGWYRQAPGKERELVASISWVGTSTYYADSVKGRFTISRDNAKNTVYLQMNSLKPDDSAVYYCAARRVKYISLDYWGQGTQVTVSS | low polyreactivity
QVQLVESGGGLVQAGGTLRLSCGASGGTFYLYTMGWYRPAPGKERELVAAISRGGSTNYADSVKGRFTISRDNAKNTVYLLMNSLIPEDTAVFYCAAVRSTGFRYYYADEYDYWGQGTQVTVSS | low polyreactivity
QVQLVESGGGLVQAGGTLRLSCGASGLIFTSNAMGWYRQAPGKESELVAAISNTGGSTYYADSVKGRFTISRDNSKNTVYLQMNSLKPEDTAVYYCAVDPAAGLTNVFYLKYFGYDFWGQGTQVTVSS | low polyreactivity
QVQLVESGGGLVQAGGTLRLSCPASGRNILGYAMGWYRPAPGKERELVAALRRSGGHTFYADSVKGRFTISRDNAKNRVYFQMNSLKPEDTAVYYCAASTSGAIRRDGFWGQGTQVSVSS | low polyreactivity

Sequence | polyreactivity (PSR sort gate)
QVQLVESGGGLVQAGGTLRLTCAASGSIFSAYAMGWYRQEPGKEREFVAAITRRGGNTYYADSVKGRFTISRDNAKNTVYVQMNSLKPEDTAVYYCAAVAGGGPFDYWGQGTQVTVSS | low polyreactivity
QVQLVESGGGLVQAGRILRLSCAASGRTFDSNAMGWYRQAPGKERELVAAISYGGGTTHYADSVKGRFTISRDNAKNTVYLQMNSLKPEYTAVYYCSADPEHLCESVTIGEYDYWGQGTQVTLSS | low polyreactivity
QVQLVESGGGLVQAGRSHRLSFAASGFTLKGYAMGWYRQAPGKDRELVAAISWNGGRTYYADSVKGRFTISRDNAKNTVYLQMNSLKPEVTAVYYCAAVYRFYSPTKYTYDYWGQGTQVTVSS | high polyreactivity
QVQLVESGGGLVQAGRSLLLICAASGSTFAYYAMGWYRQAPGKERELVAAINYRATRTYYADSVKGRFTISRDNAKNTVYLQMNSLKPDDTAVDYCIAEPAYYRSNRWPRFEYWGQGTQVTVSS | high polyreactivity
QVQLVESGGGLVQAGRSLRISCAASGYTFIYYPMGWYRPAPGKERELVATISIDGSTNYADSVKGRFTISRDNAKNTVYLQMNILKPEDTAVYYCNLERYEDYDYWGQGTQVTVSS | high polyreactivity
QVQLVESGGGLVQAGRSLRLSCAASGITFGRNTMGWYRQAPGKERELVAAIDSGGNTYADSVKGRFTISRDNAKNTVYLQMNSLKPEDTAVYYCAVDGGEFSSYGYWGQGTQVTVSS | low polyreactivity
QVQLVESGGGLVQAGRSLRLSCAASGLIFPWNAMGWYRQAPGKQRELVAAINGRDGSTYYADSVKGRFTISRDNAKNTVYLQMNSLKPEDTAVYYCAKGPSGVRSYREYDSWGQGTQVTVSS | low polyreactivity
QVQLVESGGGLVQAGRSLRLSCAASGLTFSLYAMGWSRQAPGKERELVAANSWTGGSTYYADSVKGRFTISRDNAKNTVYLQMNSLKPEDTAVYYCNARYTLFARYGYDYWGQGTQVTVSS | low polyreactivity
QVQLVESGGGLVQAGRSLRLSCAASGRIFGTYAMGWYRQAPGKERELVAAITQSGGRTYYADSVKGRFTISRDNAKNTVYLQMNSLKPEDSAVYFCNIVTYRGIGLGYDYWGHGTQVTVSS | high polyreactivity
QVQLVESGGGLVQAGRSLRLSCAASGRIFIWYRMGWYRQAPGKERELVSAITRRGGSTYYADSVKGRFTISRDNAKNTVYLQMNSLKPVDTAVYYCNADAIVSPYRLWTVTYSYWGQGTQVSVSS | low polyreactivity
QVQLVESGGGLVQAGRSLRLSCAASGRTFVYYAMGWYRQAPGKERELVATISSSDSTNYADSVKGRFTISRDNAKNTVYLQMNSLKPEDTAVYYCAAGPKGGGYYDPFDYWGQGTQVTVSS | low polyreactivity
QVQLVESGGGLVQAGRSLRLSCAASGSIFTYYAMGWYRQAPGKERELVAAINWSDSSTYNADSVKGRFTISRDNAKNTVYLQMNSLKPEDTAVYDCAATNYADGDYWGQGTQVTVSS | low polyreactivity
QVQLVESGGGLVQAGRSLRLSCAASGSILGGNAMGWYRQAPGKDRELVAAITFSGGGTYYADSVKGRFTISRDNAKNTVDFQMNSLKPEDTAVYYCAADKVGYTYEFDYWGQGTQVTVSS | low polyreactivity
QVQLVESGGGLVQAGRSLRLSCAASGSILLYYTMGWYRQAPGKERELVASITSGGRTYYADSVKGRFTISRDNAKNTVYLQMNSLKPEDTAVYYCAADVWKLYDYWGQGTQVTVSS | low polyreactivity
QVQLVESGGGLVQAGRSLRLSCAASGSTYGYYAMGWSRQAPGKERELVAAISSTGGRTYYADSVKGRFTISRDNAKNTVYVQMNSLKPEDTAVYYCAARQLSSHYDYWGQGPQVTVSS | low polyreactivity
QVQLVESGGGLVQAGRSLRLSCAATGLIFLLNAMGWYRQAPGKERELVAVITRVGDTNYADSVKGRFTISRDNAKNTVYLQMNSLKPEDTAVYSCAATSLTYEGYYWRQGTQVTVSS | low polyreactivity
QVQLVESGGGLVQAGRSLRLSCAPSGSTFKHNAMGWYRQAPGKERELVATITLRDGSTYYADSVKGRFTISRDNAKNTVYLQMNSLKPEDTAVYYCATYYSAINYGWSKTILYDYWGQGTQVTVSS | low polyreactivity
QVQLVESGGGLVQAGRSLRLSCASSGSPFDPYGKGRYRQAPGKEWEWVAAITASGRTNYADSVKGRFTISRDTAKNTVYLQMNSLKPEDTAFYYCATRKELYFYRGYEYWGQGTQVTVSS | low polyreactivity
QVQLVESGGGLVQAGRSLRLSCPAYGFTFVINDMGWYRQAPGKEREFVADITSGGDTYYADSVKGRFTISRDNAKNTVYLQMNSLKPEDTAVFYCAADIYPDWIYLLYGYWGQGTQVTVSS | low polyreactivity
QVQLVESGGGLVQAGRSLRLTCAASGFTFADNTMGWYRQAPGKDRELVAAINDAGGTNYADSVKGRFTISRDNEKNTVYLQMNSLKAEDTAVYYCAADGRIYLTYHEMEYWGQGTQVTVSS | low polyreactivity
QVQLVESGGGLVQAGRSLRLTCAASGSIFYYYAMGWYRQAPGNERELVAAISSGGRTYYADSVKGRFTISRENANNNVYLQMKSLKTEDTAVYYCAASGGSYSVGRYYYWGQGSQVTVSS | high polyreactivity
